{"source": "patent US20170157165", "biological_target": "FGF2 (Homo sapiens) (UniProt P09038)", "sequence (P09038 135-288)": "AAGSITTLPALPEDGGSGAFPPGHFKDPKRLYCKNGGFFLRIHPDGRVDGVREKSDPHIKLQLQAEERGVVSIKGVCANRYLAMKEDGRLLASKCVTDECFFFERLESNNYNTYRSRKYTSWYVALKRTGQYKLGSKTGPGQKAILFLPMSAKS", "assay": "cell_activity", "details": "5' C6; 3' idT; negative control; HUVEC proliferation, FGF2 0.58 nM"}
{"substance": "negative control RNA (Macugen sequence without PEG)", "values": [{"measurement": "IC50", "result": "> 0.4", "unit": "µM"}]}
